We go through ten molecules from patent publication US20230192789A1, “STRUCTURALLY-STABILIZED AND HDMX-SELECTIVE P53 PEPTIDES AND USES THEREOF” (Dana-Farber Cancer Institute, Inc., priority 2020, published 2023).

Entries after “also recorded” stand apart in the source; their conditions may differ. Bridges are numbered along the chain shown (N, C = ends). Where no end group is shown, it is not given here. [ ]: non-standard residue; d: D form. The star is where a group is joined. Biotin = O=C1N[C@H]2[C@H](CS[C@H]2CCCCC(=O)*)N1; R8 = C=CCCCCCC[C@@](C)(N)C(=O)O; S5 = C=CCCC[C@](C)(N)C(=O)O

One may read the Kd as the constant that tells how readily two partners part at equilibrium.

In one series the test system is OCI-AML2 cells. Kind of series: LDH release assay, OCI-AML2. The format is cell-based. The following applies: OCI-AML2, 90 minutes after peptide treatment, highest dosing level. The procedure: (§1) LDH release assay: To assess the release of lactate dehydrogenase (LDH) upon treatment with a structurally-stabilized peptide described herein, an LDH release assay can be used. Cultured cells, including, e.g., cancer cells and HUVEC cells, are plated in 96-well format (2x10^4 cells per well; including overnight incubation for adherent cells) and then treated with serial dilutions of structurally-stabilized peptides in a final volume of 100 µL and incubated at 37° C. for the indicated time period (e.g., 90 minutes). The plates are spun down at 1500 rpm for 5 minutes at 4° C., and 80 µL of cell culture media is transferred to a clear plate (Corning), incubated with 80 µL of LDH reagent (Roche) for 15 minutes while shaking, and absorbance is measured at 490 nm on a microplate reader (SpectraMax M5 Microplate Reader, Molecular Devices).
(§2) LDHRelease Assay: OCI-AML2 cells (1 × 10^4 cells/well) were plated in 96-well plates and treated with the indicated peptides or vehicle (0.2% DMSO). After 1.5 hours incubation at 37° C., 100 µl of cell medium was transferred to a 96-well clear plate and incubated with 100 µl of LDH reagent (Roche) for 25 minutes while shaking, and absorbance at 490 nm measured on a microplate reader (SpectraMax M5 Microplate Reader, Molecular Devices).
On the technique in general: Release of lactate dehydrogenase indicates damage to the cell membrane.

Another series relates to EOL-1 cells. Kind of series: LDH release assay, EOL-1. The format is cell-based. As to conditions: EOL-1, 90 minutes after peptide treatment, highest dosing level. The procedure: as §1, §2
Series [1] has as its target T1, recombinant HDM2 (amino acids 17-125 of SEQ ID NO:103) (Homo sapiens, UniProt Q00987).
T1 construct: hexahistidine (N); thrombin cleavage site (N); made in house; host or cells: BL21(DE3) E. coli
As to the kind of experiment: Competitive streptavidin pull-down of biotinylated peptides with 1:1 recombinant HDM2/HDMX mixture, HDM2 western. As to conditions: biotinylated stapled peptide, 1:1 mixture of recombinant HDM2 and HDMX. In kind it is binding. The protocol: For these studies, biotinylated peptides were incubated with a 1:1 mixture of recombinant HDM2 (amino acids 17-125 of SEQ ID NO: 103) and HDMX (amino acids 1-490 of SEQ ID NO: 104), followed by streptavidin pull-down and HDM2 and HDMX Western analyses. […] .

Series [2] addresses T2, recombinant HDMX (amino acids 1-490 of SEQ ID NO:104) (Homo sapiens, UniProt O15151).
T2 construct: thioredoxin (N, cleaved yes); S tag (N, cleaved yes); hexahistidine (N, cleaved yes); made in house; host or cells: E. coli (inferred: pET32-LIC vector, handled as described for HDM2 in BL21(DE3))
T2 sequence (O15151 1-490): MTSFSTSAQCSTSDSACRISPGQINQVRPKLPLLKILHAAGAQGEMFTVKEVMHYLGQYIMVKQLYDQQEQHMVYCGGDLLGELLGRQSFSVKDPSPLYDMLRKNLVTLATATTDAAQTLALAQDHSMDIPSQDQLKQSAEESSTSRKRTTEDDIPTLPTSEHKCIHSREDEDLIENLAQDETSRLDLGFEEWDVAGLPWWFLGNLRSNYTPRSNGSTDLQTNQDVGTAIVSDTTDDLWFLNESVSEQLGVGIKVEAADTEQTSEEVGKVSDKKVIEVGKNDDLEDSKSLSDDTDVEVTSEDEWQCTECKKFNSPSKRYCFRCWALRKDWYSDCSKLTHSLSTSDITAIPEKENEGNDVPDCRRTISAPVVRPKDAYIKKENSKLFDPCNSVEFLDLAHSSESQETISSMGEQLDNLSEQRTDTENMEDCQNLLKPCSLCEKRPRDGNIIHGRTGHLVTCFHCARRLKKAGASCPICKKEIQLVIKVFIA
Kind of series: Competitive streptavidin pull-down of biotinylated peptides with 1:1 recombinant HDM2/HDMX mixture, HDMX western. As to conditions: biotinylated stapled peptide, 1:1 mixture of recombinant HDM2 and HDMX. In kind it is binding.

The next series concerns the target T3, native HDM2 (Homo sapiens, UniProt Q00987).
T3 construct: in the context of the native proteins from cancer cell lysates; endogenous in cells; host or cells: EOL-1, OCI-AML2, SJSA-X cell lysates
As to the kind of experiment: Streptavidin pull-down from cancer cell lysates, HDM2 western. The format is binding. The protocol: (§3) In order to determine if the insights gleaned from the biochemical and structural analyses (Examples 1 and 2, above) informed the development of a stapled p53 peptide with high fidelity selectivity for native HDMX from cells, binding assays were performed using cellular lysates from both hematologic (FIG. 16A) and solid (FIG. 16B) cancers.
(§4) Streptavidin Pull-Down - Cell Lysates: Cultured cells were trypsinized, washed once with cold PBS, and lysed on ice for 30 minutes in lysis buffer (0.5% NP-40, 150 mM NaCl, 50 mM Tris pH 7.4). Protein concentration of the isolated supernatant was determined by Bradford reagent. Lysate samples (2 mg) were incubated with vehicle (0.6% DMSO) or biotinylated peptides (15 nmole) overnight in lysis buffer at 4° C. […] Bead-bound proteins were eluted by addition of 50 µl 2x LDS supplemented with DTT and boiling for 10 minutes. Eluted proteins were then subjected to electrophoresis and western blotting using HDM2 (IF2, EMD Millipore, 1:200) and MDM4 (A300-287A; Bethyl Laboratories, 1:1000) antibodies.

Series [3] deals with wild-type, Y99F, and Y99A HDMX (full-length). As to the kind of experiment: Streptavidin pull-down with wild-type, Y99F and Y99A HDMX proteins. The following applies: biotinylated peptide, full-length HDMX proteins incubated individually, HDMX western.
A further series deals with T4, native HDMX (Homo sapiens, UniProt O15151).
T4 construct: high fidelity selectivity for native HDMX from cells; endogenous in cells; host or cells: EOL-1 and OCI-AML2 lysates (endogenous); SJSA-X lysates (cells engineered to express HDMX)
T4 sequence (O15151 1-490): T2 sequence (O15151 1-490)
As to the kind of experiment: Streptavidin pull-down from cancer cell lysates, HDMX western. The format is binding. The procedure: as §3, §4

Series [4] has as its target T5, recombinant HDM2 (amino acids 17-125 of SEQ ID NO:103) (human, UniProt Q00987 17-125).
T5 construct: also called MDM2; not shown: thrombin cleavage site (pET28a vector)
Kind of series: fluorescence polarization, FITC-labelled peptide titrated with HDM2. (In general: In fluorescence polarisation assays a small probe gives low polarisation when free and higher when bound to something large.)

Series [5] addresses T5, recombinant HDM2 (amino acids 17-125 of …). Kind of series: isothermal titration calorimetry, peptide titrated into HDM2.
For series [6] the target is unchanged. Described as above. The source holds these as a separate data set.
Series [7] has the same target. Kind of series: streptavidin pull-down of biotinylated peptide with recombinant HDM2 and HDMX (1:1 mixture per paragraph 301), western blot. (Immunoblotting shows a protein as a band on a membrane.)
Setting [8] is: EOL-1, OCI-AML2, and SJSA-X cancer cell lysates.
Setting [9] is: EOL-1 and OCI-AML2 leukemia cell lysates, biotinylated peptide.
Where [10] appears, read: SJSA-X osteosarcoma cell lysates, biotinylated peptide.

As to `CC(=O)N[C@@H](CC(C)C)C(=O)N[C@H](C(=O)N[C@@H](Cc1ccccc1)C(=O)N[C@]1(C)CCCCCCC=CCCC[C@@](C)(C(=O)N[C@@H](CO)C(=O)N[C@@H](C)C(=O)N[C@@H](C)C(N)=O)NC(=O)[C@H](CCC(=O)O)NC(=O)[C@H](CCC(N)=O)NC(=O)[C@H](C)NC(=O)[C@H](Cc2c[nH]c3ccccc23)NC(=O)[C@H](Cc2ccc(O)cc2)NC(=O)[C@H](CCC(=O)O)NC1=O)[C@@H](C)O` [ATSP-7041 B26E, LTF8EYWAQEXSAA], the “non-specific membrane disruption (LDH release)” value with OCI-AML2 cells and in the series with EOL-1 cells was “no non-specific membrane disruptive activity” each time.

Turning to “ATSP-7041 B26I (Biotin-LTF[R8]EYWAQI[S5]SAA-NH2; staple 4-11; SMILES CC[C@H](C)[C@@H]1NC(=O)[C@H](CCC(N)=O)NC(=O)[C@H](C)NC(=O)[C@H](Cc2c[nH]c3ccccc23)NC(=O)[C@H](Cc2ccc(O)cc2)NC(=O)[C@H](CCC(=O)O)NC(=O)[C@](C)(NC(=O)[C@H](Cc2ccccc2)NC(=O)[C@@H](NC(=O)[C@H](CC(C)C)NC(=O)CCCC[C@@H]2SC[C@@H]3NC(=O)N[C@@H]32)[C@@H](C)O)CCCCCCC=CCCC[C@@](C)(C(=O)N[C@@H](CO)C(=O)N[C@@H](C)C(=O)N[C@@H](C)C(N)=O)NC1=O)”, the HDM2 interaction entry in series [1] was “restored HDM2 binding and bind”. For the same molecule, the “HDMX versus HDM2 binding selectivity” value in [2] was “dual HDM2/HDXM-targeting activity”; in [2] (listed as SEQ ID NO:63), “dual-selectivity to HDMX and HDM2”.

Consider ATSP-7041 B26L, for which, in series [1], the HDM2 interaction entry was “restored HDM2 binding and bind”. The “HDMX versus HDM2 binding selectivity” value in series [2] was “dual HDM2/HDXM-targeting activity”; in [2] (listed as SEQ ID NO:65), “dual-selectivity to HDMX and HDM2”.

On to “ATSP-7041 B26R (Biotin-LTF[R8]EYWAQR[S5]SAA-NH2; staple 4-11; SMILES CC(C)C[C@H](NC(=O)CCCC[C@@H]1SC[C@@H]2NC(=O)N[C@@H]21)C(=O)N[C@H](C(=O)N[C@@H](Cc1ccccc1)C(=O)N[C@]1(C)CCCCCCC=CCCC[C@@](C)(C(=O)N[C@@H](CO)C(=O)N[C@@H](C)C(=O)N[C@@H](C)C(N)=O)NC(=O)[C@H](CCCNC(=N)N)NC(=O)[C@H](CCC(N)=O)NC(=O)[C@H](C)NC(=O)[C@H](Cc2c[nH]c3ccccc23)NC(=O)[C@H](Cc2ccc(O)cc2)NC(=O)[C@H](CCC(=O)O)NC1=O)[C@@H](C)O)”, for which the HDM2 interaction entry in [1] is “essentially abrogate HDM2 interaction”. For the same molecule, in [2], the HDMX interaction result is “engage HDMX with greatest affinity” and the “HDMX versus HDM2 binding selectivity” value was “HDMX selectivity over HDM2; also recorded: most HDMX-specific”.

Turning to “QSQQTF8NLWRLEXQN (QSQQTF[R8]NLWRLE[S5]QN; staple 7-14) [SAH-p53-8 L26E]”, the “native HDM2 binding” value with native HDM2 (setting [8]) was “markedly impaired or abrogated”; with native HDM2 (setting [9]), “abrogates HDM2 binding”; with native HDM2 (setting [10]), “impairs HDM2 interaction”. Also, the “interaction with Y99F and Y99A HDMX” value in series [3] is reported as “significantly impaired; also recorded: markedly impair interaction”. In series [2], the HDMX interaction result is recorded as “robust HDMX-binding activity”. In addition, the “HDMX versus HDM2 binding selectivity” value in [2] is “exquisite binding selectivity for HDMX; also recorded: HDMX-selective”. The “native HDMX binding” value is “preserved” with native HDMX (setting [8]), “selective interaction with HDMX” with native HDMX (setting [9]) and “predominant HDMX interaction” with native HDMX (setting [10]).

For the molecule “QSQQTF8NLWRLLXQN [SAH-p53-8, reference compound]”, the “native HDM2 binding” value was “effectively engaged” in the series with native HDM2 (setting [8]), “binds” in the series with native HDM2 (setting [9]) and “binds” with native HDM2 (setting [10]). In series [3], the “interaction with Y99F and Y99A HDMX” value is recorded as “retained interaction; also recorded: effectively bind”. Further, in series [2], the “HDMX versus HDM2 binding selectivity” value is “dual-targeting HDM2/HDMX”. Moreover, the “native HDMX binding” value is given as “effectively engaged” with native HDMX (setting [8]), “binds” in the series with native HDMX (setting [9]) and “binds” in the series with native HDMX (setting [10]).

Take “SAH-p53-4 K24E/E28A: Formula (I) stapled peptide: [Xaa]w LSQETF, [Xaa]x DLWELL, [Xaa]y AN (LSQETF[R8]DLWELL[S5]AN-NH2; staple 7-14; not fully specified (N-terminus))”: the HDM2 interaction entry in series [1] is listed as “especially robust HDM2 interaction”. Besides, in [2], the HDMX interaction entry is listed as “HDMX binding” and the “HDMX versus HDM2 binding selectivity” value is recorded as “restored dual HDM2/HDMX interaction”. Also, the “HDMX versus HDM2 binding selectivity” value in series [2] (listed as SEQ ID NO:47) is listed as “selectivity to HDM2”.

B1: SAH-p53-4 (peptide)
peptide: LSQETF[R8]DLWKLL[S5]EN
modifications: staple 7-14; also: N-terminus biotin, acetyl or FITC depending on assay
notes: One entry for the peptide; also called wild-type SAH-p53-4; LSQETF8DLWKLLXEN
Take B1: the values for the Kd in series [4] and in [5] were 12 nM and 20.4 nM, respectively.

Take LSQETF[R8]DLWKLE[S5]EN (staple 7-14; also: N-terminus biotin, acetyl or FITC depending on assay) [SAH-p53-4 L26E]: the Kd in series [4] was 149 nM; in series [6], 256 nM.

For the molecule Biotin-QSQQTF[R8]NLWRLE[S5]QN-NH2 (staple 7-14, also called QSQQTF8NLWRLEXQN) [SAH-p53-8 L26E], the binding result in series [7] is recorded as “no binding”.
